Consider 35 substances from patent US20220088146A1, “Melanocortin Receptor-Specific Peptide Formulations and Methods for Gastrointestinal Tract-Specific Delivery” (Palatin Technologies, Inc., priority 2018, published 2022).

pKi: −log10 of the molar value. Bridge positions count the residues as written; N and C are the ends. Square brackets hold non-standard residues; d marks the D form. dPhe(3-Cl) = N[C@H](Cc1cccc(Cl)c1)C(=O)O; dPhe(4-Cl) = N[C@H](Cc1ccc(Cl)cc1)C(=O)O; dPhe(4-Me) = Cc1ccc(C[C@@H](N)C(=O)O)cc1; dPhe(2-Cl) = N[C@H](Cc1ccccc1Cl)C(=O)O; dPhe(4-F) = N[C@H](Cc1ccc(F)cc1)C(=O)O; dPhe(2-F) = N[C@H](Cc1ccccc1F)C(=O)O; Nle = CCCC[C@H](N)C(=O)O; Orn = NCCC[C@H](N)C(=O)O; Dab = NCC[C@H](N)C(=O)O

Test [1] deals with human melanocortin-1 receptor (human) (UniProt Q01726). Nature of the test: cell-based or functional assay.
The target is the same in test [2]. The test is described as follows: [I125]-NDP-α-MSH competition, hMC1r HEK-293 membranes.
The target of test [3] is human melanocortin-4 receptor (human) (UniProt P32245). The test is described as follows: [I125]-NDP-α-MSH competition, hMC4r HEK-293 membranes.
Test [4] has the same target. Nature of the test: cell-based or functional assay.
For a further test, the target named is melanocortin-2 receptor (UniProt Q01718). The test is described as follows: cell-based or functional assay.
The next test concerns the target melanocortin-3 receptor (UniProt P41968). The test is described as follows: cell-based or functional assay.
The target of another test is melanocortin-5 receptor (UniProt P33032). Nature of the test: cell-based or functional assay.
Chain of melanocortin-5 receptor (P33032 whole entry): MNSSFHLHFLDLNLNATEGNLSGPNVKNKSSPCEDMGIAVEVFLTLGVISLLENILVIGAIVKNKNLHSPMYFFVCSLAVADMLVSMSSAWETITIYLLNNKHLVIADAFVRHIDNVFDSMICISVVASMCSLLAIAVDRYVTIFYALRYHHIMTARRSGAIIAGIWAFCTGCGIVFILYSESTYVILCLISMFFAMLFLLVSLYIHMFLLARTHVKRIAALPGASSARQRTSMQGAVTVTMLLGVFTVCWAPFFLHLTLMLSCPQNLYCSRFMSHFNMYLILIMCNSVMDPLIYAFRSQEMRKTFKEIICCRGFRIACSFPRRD

Chain of human melanocortin-4 receptor (human) (P32245 whole entry): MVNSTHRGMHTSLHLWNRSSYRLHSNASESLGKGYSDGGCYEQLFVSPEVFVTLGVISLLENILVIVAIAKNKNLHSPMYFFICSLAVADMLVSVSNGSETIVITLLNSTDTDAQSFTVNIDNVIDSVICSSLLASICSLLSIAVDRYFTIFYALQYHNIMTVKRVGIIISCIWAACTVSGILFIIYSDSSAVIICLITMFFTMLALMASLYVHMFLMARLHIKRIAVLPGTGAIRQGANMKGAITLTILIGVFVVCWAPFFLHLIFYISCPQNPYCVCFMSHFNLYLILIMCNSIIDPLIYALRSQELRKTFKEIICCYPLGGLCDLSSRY
Chain of human melanocortin-1 receptor (human) (Q01726 whole entry): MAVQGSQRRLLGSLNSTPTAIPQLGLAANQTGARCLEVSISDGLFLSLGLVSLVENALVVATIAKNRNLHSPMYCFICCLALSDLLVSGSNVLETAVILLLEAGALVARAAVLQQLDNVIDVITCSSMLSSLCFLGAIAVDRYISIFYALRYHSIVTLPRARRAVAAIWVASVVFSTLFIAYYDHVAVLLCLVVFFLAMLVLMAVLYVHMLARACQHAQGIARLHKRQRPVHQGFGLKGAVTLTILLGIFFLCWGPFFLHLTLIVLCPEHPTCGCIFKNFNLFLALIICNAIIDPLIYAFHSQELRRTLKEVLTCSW
Chain of melanocortin-3 receptor (P41968 whole entry): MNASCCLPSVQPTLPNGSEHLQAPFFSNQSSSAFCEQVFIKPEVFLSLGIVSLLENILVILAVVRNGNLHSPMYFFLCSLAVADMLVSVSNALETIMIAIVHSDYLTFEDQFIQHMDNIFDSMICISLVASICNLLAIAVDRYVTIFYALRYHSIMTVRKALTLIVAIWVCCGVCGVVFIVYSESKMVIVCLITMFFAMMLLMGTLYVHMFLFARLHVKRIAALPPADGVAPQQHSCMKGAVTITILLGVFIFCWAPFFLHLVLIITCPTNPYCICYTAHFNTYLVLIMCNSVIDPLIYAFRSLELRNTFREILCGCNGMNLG
Chain of melanocortin-2 receptor (Q01718 whole entry): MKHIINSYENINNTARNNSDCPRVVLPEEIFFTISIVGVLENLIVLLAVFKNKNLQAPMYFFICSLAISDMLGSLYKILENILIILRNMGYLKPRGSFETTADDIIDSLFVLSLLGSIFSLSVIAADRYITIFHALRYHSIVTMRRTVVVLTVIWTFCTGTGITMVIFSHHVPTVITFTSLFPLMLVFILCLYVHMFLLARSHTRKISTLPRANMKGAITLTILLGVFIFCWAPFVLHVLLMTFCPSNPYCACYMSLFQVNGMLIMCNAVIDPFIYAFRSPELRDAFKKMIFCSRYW

On to “Ac-Nle-cyclo(Glu-His-D-Phe-Arg-Dap)-Trp-OH (peptide)”, for which, in test [1], the MC-1 EC50 (average; cAMP HBL) came out at 0.107 nM and the MC-1 Emax (average; cAMP HBL) stood at 81%. In test [2], the pKi (usually the Ki on a negative log10 scale, so that one unit is a factor of ten) is 9.00. In test [3], this substance had a pKi of 5.33.
The matching figures for “Ac-Nle-cyclo(Glu-Dab-D-Phe-Arg-Dab)-Trp-NH2 (peptide)”: 0.008 nM, 108%, 10.30 and 7.01.
In the same order, the values of “Ac-Nle-cyclo(Glu-Orn-D-Phe(4-OMe)-Arg-Dab)-NH2 (peptide)” are 0.12 nM, 99%, 8.70 and 5.00.
In test [1], “Ac-Nle-cyclo(Glu-His-D-Phe-Arg-Dab)-Trp-OH (peptide)” had an MC-1 Emax (average; cAMP HBL) of 79%. The pKi is 8.70 in test [2] and 5.00 in test [3].
For the substance “Ac-[Nle]E[Orn][dPhe(4-Cl)]R[Dab]-NH2 (lactam 2-6)”, in test [1], the MC-1 EC50 (average; cAMP HBL) stood at 0.1 nM and the MC-1 Emax (average; cAMP HBL) was determined as 100%. In addition, the pKi in test [2] was 8.70. For the same substance, in test [3], the negative logarithm of the Ki (pKi) is 5.91.
In test [1], Ac-[Nle]EH[dF][Dab]-NH2 (lactam 2-5) came in with an MC-1 Emax (average; cAMP HBL) of 51%. The pKi in test [2] and in test [3] was 5.00 throughout.
For “Ac-Nle-cyclo(Glu-Ala-D-Phe-Arg-Dab)-Trp-NH2 (peptide)”, the MC-1 Emax (average; cAMP HBL) in test [1] came to 86%. Besides, in test [3], the pKi is 6.34.
In test [1], “Ac-[Nle]E[Orn][dPhe(3-Cl)]R[Dab]-NH2 (lactam 2-6)” came in with an MC-1 EC50 (average; cAMP HBL) of 2 nM and an MC-1 Emax (average; cAMP HBL) of 86%. In test [2], the pKi was 7.46. In test [3], this substance gave a negative-log Ki (pKi) of 5.00.
Regarding “Ac-Nle-cyclo(Glu-Cit-D-Phe-Arg-Dab)-Trp-NH2 (peptide)”, in test [1], the MC-1 EC50 (average; cAMP HBL) worked out at 0.065 nM and the MC-1 Emax (average; cAMP HBL) came to 97%. In test [2], this substance gave a pKi of 9.35. The same substance showed a negative logarithm of the Ki (pKi) in test [3] of 7.01.
“Ac-[Nle]E[Orn][dPhe(2-Cl)]R[Dab]-NH2 (lactam 2-6)”: in test [1], the MC-1 EC50 (average; cAMP HBL) worked out at 1 nM and the MC-1 Emax (average; cAMP HBL) came out at 88%. Also, the pKi in test [2] is 7.52. This substance had a pKi in test [3] of 5.00.
The matching figures for “Ac-Nle-cyclo(Dab-His-D-Phe-Arg-Dap)-Trp-NH2 (peptide)”: 0.006 nM, 78%, 10.60 and 6.49.
In the same order, the values of “Ac-[Nle]E[Orn][dPhe(2-F)]R[Dab]-NH2 (lactam 2-6)” are 0.8 nM, 95%, 7.74 and 5.00.
“Ac-[Nle]E[Orn][dF]R[Dab]-NH2 (lactam 2-6)” yielded an MC-1 EC50 (average; cAMP HBL) in test [1] of 0.5 nM. Besides, the MC-1 Emax (average; cAMP HBL) in test [1] amounted to 102%. In addition, the pKi in test [2] is 8.40; in test [3], 5.44.
In test [1], “Ac-Nle-cyclo(Glu-His-D-Phe-Arg-Dap)-Trp-NH2 (peptide)” came in with an MC-1 Emax (average; cAMP HBL) of 91%. Further, in test [4], the Functional - CEREP (EC50; nM) worked out at 510 nM. For the same substance, the negative logarithm of the Ki (pKi) in test [3] was 6.29.
On to “Ac-Nle-cyclo(Dab-His-D-Phe-Arg-Dab)-Trp-NH2 (peptide)”, for which, in test [1], the MC-1 EC50 (average; cAMP HBL) stood at 0.009 nM and the MC-1 Emax (average; cAMP HBL) is 92%. For the same substance, in test [2], the pKi is 10.82. For the same substance, in test [3], the pKi was 6.42.
The matching figures for “Ac-[Nle]E[Orn][dPhe(4-Me)]R[Dab]-NH2 (lactam 2-6)”: 0.076 nM, 96%, 8.52 and 5.00.
In the same order, the values of “Ac-Nle-cyclo(Glu-Orn-D-Phe(3,4-F)-Arg-Dab)-NH2 (peptide)” are 1 nM, 97%, 7.40 and 5.00.
The matching figures for “Ac-Nle-cyclo(Dap-His-D-Phe-Arg-Dap)-Trp-NH2 (peptide)”: 0.007 nM, 70%, 10.52 and 6.17.
In test [1], “Ac-Nle-cyclo(Glu-Orn-D-Phe-Arg-Dab)-Trp-NH2 (peptide)” registered an MC-1 EC50 (average; cAMP HBL) of 0.002 nM and an MC-1 Emax (average; cAMP HBL) of 109%. In test [2], the pKi was 10.82. This substance had a pKi in test [3] of 7.35.
For “Ac-Nle-cyclo(Glu-His-D-Phe-Arg-Dab)-Trp-NH2 (peptide)”, the MC-1 Emax (average; cAMP HBL) in test [1] came out at 95%. In test [3], this substance gave a pKi of 6.96.
The matching figures for “Ac-Nle-cyclo(Glu-Arg-D-Phe-Arg-Dab)-Trp-NH2 (peptide)”: 100% and 7.70.
Consider “Ac-Nle-cyclo(Dap-His-D-Phe-Arg-Dab)-Trp-NH2 (peptide)”, for which the MC-1 EC50 (average; cAMP HBL) in test [1] came to 0.016 nM. The substance further had an MC-1 Emax (average; cAMP HBL) in test [1] of 85%. In addition, the pKi in test [2] is 10.19; in test [3] it was 6.07.
The matching figures for “Ac-Nle-cyclo(Glu-His-D-Phe-Arg-Dab)-Nal 1-NH2 (peptide)”: 0.002 nM, 72%, 11.30 and 9.12.
In test [1], Ac-[Nle]EH[dF]R[Dab]-NH2 (lactam 2-6) showed an MC-1 EC50 (average; cAM PHBL) of 0.32 nM, an MC-1 EC50 (average; cAMP HBL) of 0.32 nM and an MC-1 Emax (average; cAMP HBL) of 85%. In test [2], this substance showed a negative-log Ki (pKi) of 8.15. Moreover, the pKi in test [3] was 5.00.
As to “Ac-Nle-cyclo(Glu-His-D-Phe-Arg-Dab)-D-Nal 2-NH2 (peptide)”, in test [1], the MC-1 EC50 (average; cAMP HBL) was determined as 0.005 nM and the MC-1 Emax (average; cAMP HBL) is 69%. Also, the negative logarithm of the Ki (pKi) in test [2] is 10.70. Further, in test [3], the pKi was 10.02.
“Ac-Nle-cyclo(Glu-His-D-Phe-Arg-Orn)-Trp-NH2 (peptide)” had an MC-1 Emax (average; cAMP HBL) in test [1] of 91%. Further, the pKi in test [3] was 6.53.
On to “Ac-Nle-cyclo(Glu-His-D-Phe-Arg-Dab)-D-Trp-NH2 (peptide)”, for which, in test [1], the MC-1 EC50 (average; cAMP HBL) was 0.025 nM and the MC-1 Emax (average; cAMP HBL) was 93%. In test [2], this substance showed a negative logarithm of the Ki (pKi) of 9.26. In test [3], this substance had a negative logarithm of the Ki (pKi) of 7.48.
Turning to “Ac-[Nle]E[Orn][dPhe(4-F)]R[Dab]-NH2 (lactam 2-6)”, in test [1], the MC-1 EC50 (average; cAMP HBL) amounted to 1 nM and the MC-1 Emax (average; cAMP HBL) is 102%. The pKi in test [2] is 7.70. The pKi in test [3] is 5.00.
As for “Ac-Nle-cyclo(Glu-Lys-D-Phe-Arg-Dab)-Trp-NH2 (peptide)”, the MC-1 Emax (average; cAMP HBL) in test [1] was determined as 108%. The substance also had a pKi in test [3] of 7.02.
On to Ac-[Nle]EH[dF]A[Dab]-NH2 (lactam 2-6), for which, in test [1], the MC-1 EC50 (average; cAMP HBL) was determined as 44 nM, the MC-1 EC50 (average; cAMPHBL) turned out to be 44 nM and the MC-1 Emax (average; cAMP HBL) was 73%. In addition, in test [2], the pKi is 6.19. In addition, in test [3], the pKi was 5.00.
With “ACTH (adrenocorticotropic hormone) (from UniProt P01189 138-176) (ligand)”, the Functional - CEREP (EC50; nM) worked out at 980 nM in test [1]; 350 nM in test [4]; 4.8 nM with melanocortin-2 receptor; 390 nM in the test with melanocortin-3 receptor; 4100 nM in the test with melanocortin-5 receptor.
On to “Ac-D-Phe-cyclo(Glu-His-D-Phe-Arg-Dab)-Trp-NH2 (peptide)”, for which the MC-1 Emax (average; cAMP HBL) in test [1] came out at 75%. The pKi in test [3] was 6.27.
For “Ac-Nle-cyclo(Glu-His-D-Phe-Arg-Dab)-Nal 2-NH2 (peptide)”, in test [1], the MC-1 EC50 (average; cAM PHBL) worked out at 0.004 nM and the MC-1 Emax (average; cAMP HBL) was 83%. In addition, in test [2], the pKi is 11.00. The substance also had a pKi in test [3] of 8.52.
On to “Ac-Nle-cyclo(Glu-His-D-Phe-Arg-Dab)-D-Nal 1-NH2 (peptide)”, for which, in test [1], the MC-1 EC50 (average; cAMP HBL) amounted to 0.008 nM. In addition, the MC-1 Emax (average; cAMP HBL) in test [1] was found to be 73%. Besides, the results for the pKi in test [2] and in test [3] were 10.00 and 8.70, respectively.
With “Ac-Nle-cyclo(Glu-Pro-D-Phe-Arg-Dab)-NH2 (peptide)”, the pKi in test [2] was 5.65; in test [3], 5.00.
